Measurements: article PMC12218292 (Nature Communications, 2025)

T1: Rad51 (S. cerevisiae), P25454
T1 chain: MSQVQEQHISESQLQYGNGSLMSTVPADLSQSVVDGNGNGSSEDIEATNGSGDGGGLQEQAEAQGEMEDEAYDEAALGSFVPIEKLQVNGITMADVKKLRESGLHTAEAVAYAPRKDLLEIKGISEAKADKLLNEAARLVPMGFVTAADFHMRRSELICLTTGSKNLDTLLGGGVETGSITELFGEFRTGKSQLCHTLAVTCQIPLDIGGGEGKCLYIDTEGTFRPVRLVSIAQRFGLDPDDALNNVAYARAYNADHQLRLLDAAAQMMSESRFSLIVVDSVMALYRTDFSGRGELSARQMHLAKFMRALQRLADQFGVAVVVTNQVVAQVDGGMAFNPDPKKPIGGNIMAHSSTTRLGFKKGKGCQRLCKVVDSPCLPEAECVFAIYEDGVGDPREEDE

B1: Rad51 (natural protein, S. cerevisiae, UniProt P25454 1-400, looked up)
chain: MSQVQEQHISESQLQYGNGSLMSTVPADLSQSVVDGNGNGSSEDIEATNGSGDGGGLQEQAEAQGEMEDEAYDEAALGSFVPIEKLQVNGITMADVKKLRESGLHTAEAVAYAPRKDLLEIKGISEAKADKLLNEAARLVPMGFVTAADFHMRRSELICLTTGSKNLDTLLGGGVETGSITELFGEFRTGKSQLCHTLAVTCQIPLDIGGGEGKCLYIDTEGTFRPVRLVSIAQRFGLDPDDALNNVAYARAYNADHQLRLLDAAAQMMSESRFSLIVVDSVMALYRTDFSGRGELSARQMHLAKFMRALQRLADQFGVAVVVTNQVVAQVDGGMAFNPDPKKPIGGNIMAHSSTTRLGFKKGKGCQRLCKVVDSPCLPEAECVFAIYEDGVGDPREEDE
notes: Oligomeric alone in solution; also called full-length unlabeled Rad51

Biological target: T1, Rad51 (S. cerevisiae), P25454
Assay: SEC-SAXS; Rad51 + Rad52 (295–408) 1:1; SWING beamline in SEC mode, Superdex 5/150 GL column; peak deconvolution; molecular weight from SAXS
Settings: remark: other sources report otherwise
For B1, the stoichiometry N was 4.

What follows are molecules tested against Rad51 (in yeast cells) (UniProt P25454) (assay: co-immunoprecipitation (co-IP)). Settings: read off a plot.
Rad52-FLAG (from UniProt P06778) A319 was tested, and the other: interaction loss by coIP (%) was 99%. With Rad52-FLAG (from UniProt P06778) L363 the other: interaction loss by coIP (%) was 27%. With Rad52-FLAG (from UniProt P06778) P381 the other: interaction loss by coIP (%) was 79%. Work on Rad52-FLAG (from UniProt P06778) S355 yielded an other: interaction loss by coIP (%) of 100%. With Rad52-FLAG (from UniProt P06778) S374 the other: interaction loss by coIP (%) was 33%. Rad52-FLAG (from UniProt P06778) T318 showed an other: interaction loss by coIP (%) of 97%. Rad52-FLAG (from UniProt P06778) V317 was tested, and the other: interaction loss by coIP (%) was 80%. For Rad52-FLAG (from UniProt P06778) V325, the other: interaction loss by coIP (%) was 89%. Rad52-FLAG (from UniProt P06778) V350 was tested, and the other: interaction loss by coIP (%) was 49%. For Rad52-FLAG (from UniProt P06778) V358E, the other: interaction loss by coIP (%) was 100%.

The molecules below were run against T2, Rad52 (295–408) (S. cerevisiae, UniProt P06778 295-408, uniform 15N labelling) (assay: SEC-SAXS; Rad51 + Rad52 (295–408) 1:1; SWING beamline in SEC mode, Superdex 5/150 GL column; peak deconvolution; molecular weight from SAXS). Settings: both partners purified.
T2 construct: numbered from the first AUG codon in RAD52 mRNA (protein of 471 residues); Cloned in pETM30; also called Rad52C-ter; Rad52-Cter; source: E. coli BL21(DE3), purified (GSH-sepharose, TEV cleavage, Ni Sepharose, PD10)
T2 sequence (P06778 295-408): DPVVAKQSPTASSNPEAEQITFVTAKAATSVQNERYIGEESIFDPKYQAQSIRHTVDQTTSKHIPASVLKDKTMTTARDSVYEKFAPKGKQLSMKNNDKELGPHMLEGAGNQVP
For B1, the “stoichiometry N” value was 1.
